The target in series [1] is T1, AtPIF3-bHLH H348A (Arabidopsis thaliana, UniProt O80536 340-397, H348A).
T1 sequence: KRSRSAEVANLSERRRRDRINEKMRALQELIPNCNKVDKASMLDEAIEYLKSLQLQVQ
As to the kind of experiment: ITC; binding curve unsaturated; ITC: 30 mM HEPES, 125 mM NaCl, pH 7.5, 25 C, 400 uM protein into 40 uM DNA; fEMSA: 30 mM HEPES, 500 mM NaCl, pH 7.4, on ice 30 min, 3 uM probe, 10% native gel in 0.5x TBE at 4 C. Particulars: protein: recombinant; tags: C-terminal His6; chain copies: 2; blunt. On the technique in general: Isothermal titration calorimetry measures the heat released or taken up as one component is titrated into another.

The target of series [2] is T2, AtPIF3-bHLH R356A (Arabidopsis thaliana, UniProt O80536 340-397, R356A).
T2 sequence: T1 sequence with A9H, R17A
As to the kind of experiment: ITC; error exceeds value; ITC: 30 mM HEPES, 125 mM NaCl, pH 7.5, 25 C, 400 uM protein into 40 uM DNA; fEMSA: 30 mM HEPES, 500 mM NaCl, pH 7.4, on ice 30 min, 3 uM probe, 10% native gel in 0.5x TBE at 4 C. Particulars: protein: recombinant; tags: C-terminal His6; chain copies: 2; blunt.

Changes are numbered by the printed parent chain.

B1: G-box (PER2), ITC (dsDNA)
DNA 1: AGGAACACGTGACCC
DNA 2: GGGTCACGTGTTCCT
One may read the Kd as the concentration at which binding is half-saturated. For the molecule B1, the dissociation constant Kd amounted to 3.39 ± 0.275 µM in series [1] and 106 ± 112 µM in series [2].

The record behind these values is PMC11552376, “Specific binding between Arabidopsis thaliana phytochrome-interacting factor 3 (AtPIF3) bHLH and G-box originated prior to embryophyte emergence” (BMC Plant Biology, 2024).
